The target in assay [1] is biotinylated PfArlI, ArlI motor ATPase of Pyrococcus furiosus with AviTag, unlabelled, immobilised (Pyrococcus furiosus). The experiment in a line: single-molecule TIRF photobleaching step counting.
For assay [2], the target named is PfArlH^S109C, single cysteine mutant of Pyrococcus furiosus ArlH labelled with Atto550 and Atto647N, non-phosphorylated (Pyrococcus furiosus). The experiment in a line: single-molecule TIRF photobleaching step counting.
Assay [3] concerns the target SaArlH, ArlH of Sulfolobus acidocaldarius, His-tagged, non-phosphorylated (Sulfolobus acidocaldarius). The experiment in a line: BLI.
The target of assay [4] is labelled, biotinylated PfArlI^C290S/T411C (Pyrococcus furiosus). Briefly: single-molecule TIRF photobleaching step counting.

Several values for one entry are separate records, joined by “and”; a condition that tells them apart may be missing. Equal values may be shown once.

“PfArlH^S109C, single cysteine mutant of Pyrococcus furiosus ArlH labelled with Atto550 and Atto647N, non-phosphorylated (natural protein)”: the stoichiometry N is 1 in assay [1]; 6 and 3 in assay [2].
“SaArlI, ArlI motor ATPase of Sulfolobus acidocaldarius (Strep-SaArlI) (enzyme)” came in with a Kd in assay [3] of 0.638 µM.
In the case of “labelled, biotinylated PfArlI^C290S/T411C (enzyme)”, the stoichiometry N in assay [4] is 3 and 2 and 6.

Source of the values: paper doi:10.1101/2021.03.19.436134.
